The values that follow are results of earlier work, collected in article PMC8138767, “Intrinsically disordered substrates dictate SPOP subnuclear localization and ubiquitination activity” (The Journal of Biological Chemistry, 2021).

One series concerns the target T1, SPOP28–359 (Homo sapiens, UniProt O43791).
T1 construct: A plasmid encoding His–SUMO–SPOP human residues 28 to 359; His-SUMO (N, cleaved yes); made in house; host or cells: E. coli Rosetta BL-21(DE3)
As to conditions: substrates with six (DAXX) and seven (AR) SB motifs; cited from earlier work. The text has this: We next sought to assess the role of SPOP oligomerization in the SPOP–Pdx1 interaction and saw a near 10-fold enhancement in binding affinity of Pdx1 to oligomeric SPOP28–359 compared with SPOP–MATH (Fig. 5B and Table S4) in agreement with previous similar observations ([22], [23]). Concentration-dependent SPOP self-association results in an ensemble of oligomeric species with sizes spanning from dimers to large multimers ([21]). SPOP substrates DAXX and AR are also multivalent for SPOP; they contain six and seven SB motifs, respectively, which dramatically enhances their affinities for SPOP28 ...

The test system of a further series is SPOP. Particulars: in phase-separated droplets in cells; cited from earlier work. The text has this: SPOP derives its name from the […]. Specifically, SPOP colocalizes with nuclear speckles but has also been reported in other subnuclear compartments ([24], [26]). The nuclear speckles that house SPOP in the absence of high concentrations of substrate are liquid-like in nature ([21]). The SPOP substrate DAXX typically localizes to promyelocytic leukemia bodies ([27]).

T1 sequence (O43791 28-359): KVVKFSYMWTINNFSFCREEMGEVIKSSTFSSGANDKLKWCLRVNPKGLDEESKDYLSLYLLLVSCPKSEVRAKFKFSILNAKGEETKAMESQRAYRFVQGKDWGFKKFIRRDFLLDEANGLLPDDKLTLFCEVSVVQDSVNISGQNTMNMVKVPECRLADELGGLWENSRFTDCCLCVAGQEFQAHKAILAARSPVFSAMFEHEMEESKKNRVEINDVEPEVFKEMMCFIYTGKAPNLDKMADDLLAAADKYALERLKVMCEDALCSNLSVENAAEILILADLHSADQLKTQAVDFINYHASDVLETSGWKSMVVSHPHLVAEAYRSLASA

Turning to “AR: androgen receptor, SPOP substrate with seven SB motifs”, in the series with SPOP28–359, the “affinity for SPOP28–359 relative to SPOP–MATH” value is recorded as “dramatically enhances their affinities for SPOP28–359 relative to SPOP–MATH”. Moreover, the “SPOP-mediated polyubiquitination in cells” value in the series on SPOP is reported as “robust SPOP-mediated polyubiquitination”.
